From the supplement of paper PMC9112550, “Optimization of the antimicrobial peptide Bac7 by deep mutational scanning” (BMC Biology, 2022) come the findings set out here.

In the data set the test system is Escherichia coli TOP10. Briefly: shrunken log2 fold change of peptide-encoding DNA abundance (4.5 h post-induction vs induction); higher = less antimicrobial activity (less host growth inhibition). Particulars: time post-induction: 4.5 h; library: site-saturation at positions 5, 18, 19, 20.
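Further: peptides expressed intracellularly from a pBAD plasmid library in pooled LB shake-flask culture, induced with 0.3% L-arabinose, DNA abundance read by NGS, three biological replicates, DESeq2 with apeglm shrinkage.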

RRIRQRPPRLPRPRPRPTWNPRP: the “shrunken log2 fold change” value was -0.0697.

With RRIRWRPPRLPRPRPRPETAPRP, the “shrunken log2 fold change” value is 0.177.

Consider RRIRGRPPRLPRPRPRPAVFPRP, for which the “shrunken log2 fold change” value was 0.878.

RRIRARPPRLPRPRPRPPCNPRP: the “shrunken log2 fold change” value worked out at 0.0888.

As to RRIRTRPPRLPRPRPRPWIQPRP, the “shrunken log2 fold change” value is -0.194.

With RRIRTRPPRLPRPRPRPWQHPRP, the “shrunken log2 fold change” value is -0.0511.

Take RRIRFRPPRLPRPRPRPTYMPRP: the “shrunken log2 fold change” value is -0.0541.

As for RRIRQRPPRLPRPRPRPCTEPRP, the “shrunken log2 fold change” value amounted to 0.0363.

Consider RRIRTRPPRLPRPRPRPWGIPRP, for which the “shrunken log2 fold change” value was -0.0774.

With RRIRTRPPRLPRPRPRPYWLPRP, the “shrunken log2 fold change” value is -0.486.

For the sequence RRIRMRPPRLPRPRPRPNVYPRP, the “shrunken log2 fold change” value is -0.368.

Take RRIRHRPPRLPRPRPRPYRLPRP: the “shrunken log2 fold change” value is -0.302.

Regarding RRIRRRPPRLPRPRPRPQCYPRP, the “shrunken log2 fold change” value was -0.136.

Consider RRIRNRPPRLPRPRPRPIYQPRP, for which the “shrunken log2 fold change” value worked out at 0.0607.

For the sequence RRIRIRPPRLPRPRPRPNIFPRP, the “shrunken log2 fold change” value was -0.319.

For the sequence RRIRYRPPRLPRPRPRPFWKPRP, the “shrunken log2 fold change” value came out at 0.226.

As to RRIRHRPPRLPRPRPRPHKWPRP, the “shrunken log2 fold change” value was -0.0897.

As for RRIRMRPPRLPRPRPRPLLTPRP, the “shrunken log2 fold change” value is 2.33.

As for RRIRSRPPRLPRPRPRPQHSPRP, the “shrunken log2 fold change” value was -0.658.

For the sequence RRIRARPPRLPRPRPRPFINPRP, the “shrunken log2 fold change” value was -0.356.

Take RRIRVRPPRLPRPRPRPRVMPRP: the “shrunken log2 fold change” value stood at 0.188.

With RRIRFRPPRLPRPRPRPLQSPRP, the “shrunken log2 fold change” value was 0.11.

As for RRIRFRPPRLPRPRPRPLPEPRP, the “shrunken log2 fold change” value was determined as 0.224.

As for RRIRSRPPRLPRPRPRPKDCPRP, the “shrunken log2 fold change” value turned out to be 0.456.

As to RRIRERPPRLPRPRPRPAPIPRP, the “shrunken log2 fold change” value was 0.0258.

Take RRIRIRPPRLPRPRPRPNLGPRP: the “shrunken log2 fold change” value was -0.109.

With RRIRMRPPRLPRPRPRPLMAPRP, the “shrunken log2 fold change” value turned out to be 2.47.

RRIRNRPPRLPRPRPRPMMAPRP: the “shrunken log2 fold change” value was -0.106.

As to RRIRDRPPRLPRPRPRPYNCPRP, the “shrunken log2 fold change” value is -0.0352.

As for RRIRNRPPRLPRPRPRPETLPRP, the “shrunken log2 fold change” value was determined as 0.373.

In the case of RRIRARPPRLPRPRPRPVWQPRP, the “shrunken log2 fold change” value is 0.129.

Regarding RRIRCRPPRLPRPRPRPKWHPRP, the “shrunken log2 fold change” value was -0.169.

Consider RRIRGRPPRLPRPRPRPHQAPRP, for which the “shrunken log2 fold change” value is 0.354.

For the sequence RRIRFRPPRLPRPRPRPNGHPRP, the “shrunken log2 fold change” value is -0.0454.

Regarding RRIRLRPPRLPRPRPRPMNTPRP, the “shrunken log2 fold change” value is -0.524.

With RRIRDRPPRLPRPRPRPVTDPRP, the “shrunken log2 fold change” value is 0.0222.

For the sequence RRIRGRPPRLPRPRPRPMFIPRP, the “shrunken log2 fold change” value amounted to 0.0775.

As to RRIRKRPPRLPRPRPRPPKVPRP, the “shrunken log2 fold change” value was 0.613.

On to RRIRMRPPRLPRPRPRPTNMPRP, for which the “shrunken log2 fold change” value is -0.0158.

In the case of RRIRRRPPRLPRPRPRPTSAPRP, the “shrunken log2 fold change” value was found to be 0.274.

As to RRIRPRPPRLPRPRPRPMGNPRP, the “shrunken log2 fold change” value is -0.0876.

For the sequence RRIRWRPPRLPRPRPRPAMKPRP, the “shrunken log2 fold change” value is -0.0119.

As for RRIRWRPPRLPRPRPRPREVPRP, the “shrunken log2 fold change” value is 0.477.

For RRIRERPPRLPRPRPRPKDKPRP, the “shrunken log2 fold change” value was -0.15.

As to RRIRPRPPRLPRPRPRPGICPRP, the “shrunken log2 fold change” value is -0.0417.

Take RRIRMRPPRLPRPRPRPYKRPRP: the “shrunken log2 fold change” value was -0.0368.

Consider RRIRNRPPRLPRPRPRPADNPRP, for which the “shrunken log2 fold change” value amounted to 0.0856.

In the case of RRIRKRPPRLPRPRPRPKAWPRP, the “shrunken log2 fold change” value was -0.0159.

With RRIRCRPPRLPRPRPRPEQTPRP, the “shrunken log2 fold change” value is 0.0662.

RRIRFRPPRLPRPRPRPYYTPRP: the “shrunken log2 fold change” value was -0.369.

As to RRIRNRPPRLPRPRPRPLLDPRP, the “shrunken log2 fold change” value was determined as 0.0489.

Consider RRIRCRPPRLPRPRPRPFIFPRP, for which the “shrunken log2 fold change” value was -0.425.

On to RRIRRRPPRLPRPRPRPLQYPRP, for which the “shrunken log2 fold change” value was found to be 0.615.

RRIRERPPRLPRPRPRPVCPPRP: the “shrunken log2 fold change” value was -0.162.

In the case of RRIRMRPPRLPRPRPRPNGFPRP, the “shrunken log2 fold change” value is 0.207.

As to RRIRYRPPRLPRPRPRPLIQPRP, the “shrunken log2 fold change” value is -0.559.

For RRIRARPPRLPRPRPRPAIQPRP, the “shrunken log2 fold change” value turned out to be 0.228.

Turning to RRIRKRPPRLPRPRPRPCGKPRP, the “shrunken log2 fold change” value worked out at 0.00875.

Turning to RRIRERPPRLPRPRPRPQAGPRP, the “shrunken log2 fold change” value turned out to be 0.275.

As to RRIRWRPPRLPRPRPRPVQGPRP, the “shrunken log2 fold change” value is -0.124.

For the sequence RRIRDRPPRLPRPRPRPYWHPRP, the “shrunken log2 fold change” value was -0.921.

Consider RRIRTRPPRLPRPRPRPTLEPRP, for which the “shrunken log2 fold change” value amounted to 0.0319.

RRIRNRPPRLPRPRPRPAAQPRP: the “shrunken log2 fold change” value was 0.401.
